Assay results reported in patent US20120264231A1, “ASSAY FOR ORAI CALCIUM CHANNEL REGULATORS” (IMMUNE DISEASE INSTITUTE, INC., priority 2009, published 2012).

Columns and labels:
human ORAI1 (65-301) = target: T1, human ORAI1 (65-301) (Homo sapiens, UniProt Q96D31, E106Q/N223A); test: Pichia membrane flotation assay, membranes containing ORAI1 (65-301); format: binding; details: sucrose gradient, Western blotting
T1 construct: human ORAI1 (65-301) with an N-terminal FLAG tag; made in house; host or cells: Pichia pastoris GS115 (microsomal membranes)
T1 sequence (Q96D31 65-301 E106Q/N223A): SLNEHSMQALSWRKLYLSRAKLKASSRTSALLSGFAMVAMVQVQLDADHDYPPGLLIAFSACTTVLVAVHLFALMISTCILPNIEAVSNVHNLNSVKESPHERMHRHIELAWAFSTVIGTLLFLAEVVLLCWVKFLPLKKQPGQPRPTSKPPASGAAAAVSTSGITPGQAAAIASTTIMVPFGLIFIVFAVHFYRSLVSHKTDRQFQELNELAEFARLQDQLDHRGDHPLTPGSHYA
Method: A membrane flotation assay was used to evaluate binding of these recombinant STIM 1 proteins to ORAI1. For these experiments ORAI1 (65-301) was expressed, an N-terminally truncated ORAI1 protein that forms functional Ca^2+ channels in mammalian cells (Li, Z., et al., J Biol Chem 282, 29448-29456 (2007)), in the yeast Pichia pastoris. Microsomal membranes were prepared from P pastoris expressing ORAI1 (65-301), layered at the bottom of a discontinuous sucrose gradient, and centrifuged. After centrifugation, the recombinant ORAI 1 was recovered near the top of the gradient in the fraction visually identified as containing membranes (FIG. 2A), as expected for an integral membrane protein.
STIM 1, ORAI 1, and D3 cpV/D4 cpV expression constructs were engineered as described herein. Recombinant STIM 1 fragments were expressed in E coli, purified, and characterized by CD spectroscopy and SEC-MALLS. Binding of STIM 1 fragments to ORAI1 channels in their normal bilayer environment was assessed in a flotation assay, using microsomal membranes prepared from the yeast P pastoris and containing human ORAI1 (65-301). Binding of STIM1 fragments to recombinant ORAI^CT was assessed in a pulldown assay using GST-tagged ORAI1^CT.
P pastoris strain GS115 was transformed with SalI-linearized pPIC3.5K-ORAI1 by electroporation and selected on plates lacking histidine. H is transformants were further grown in the presence of 0.25-4 mg/mL G418 to select for yeast that had integrated multiple copies of pPIC3.5K into the genome. Selected colonies capable of growth on 0.5-4 mg/mL G418 were grown in small-scale culture, induced with methanol as detailed below, and their level of ORAI expression determined by Western blotting for the FLAG tag. P pastoris transformants were grown in minimal dextrose medium lacking histidine and induced with 0.5% methanol for 6-18 h. Cells were pelleted at 3,000×g for 15 min at 4° C. and resuspended in breaking buffer containing 50 mM sodium phosphate, 1 mM TCEP, 1 mM EDTA, 5% glycerol and complete protease inhibitor cocktail (Roche). […]

CD thermal unfolding = format: physicochemical; details: CD signal at 222 nm, 20 μM protein, pH 7.5
Method: CD spectra of STIM 1^CT fragments were recorded in a Jasco-810 spectropolarimeter at 25° C. using a 1-mm path length quartz cell with the protein concentration at 20 μM in 10 mM Tris-HCl, 150 mM KCl, 1 mM DTT at pH 7.5. All spectra were obtained as the average of at least ten scans with a scan rate of 50 nm/min. The ellipticity was measured from 190 to 260 nm and converted to mean residue molar ellipticity (deg cm^2 dmol^−1 res^−1). The calculation of secondary structure elements was performed by using DICHROWEB, an online server for protein secondary structure analyses (Whitmore, L. & Wallace, B. A. Nucleic Acids Res 32, W668-W673 (2004)). Thermal unfolding measurements were performed using a 1 mm quartz cell with a protein concentration of 20 μM in the same buffer. To obtain the thermal transition point, the signal changes at 222 nm were fitted using the equation: ΔS=ΔSmax/[…]), where ΔS and ΔSmax are the signal changes at each data point and at the final data point, Tm and T are the transition temperature and experimental temperature, respectively, and k represents the transition rate.

binding to ORAI1 in membrane flotation (human ORAI1 (65-301)) | Substance | Tm (thermal unfolding) (CD thermal unfolding)
did not bind detectably | STIM1 (233-463): truncated mouse STIM1 cytoplasmic fragment, residues 233-463, His-tagged recombinant protein | 43.8±0.2 °C
clearly bound ORAI | STIM1 (233-498): truncated mouse STIM1 cytoplasmic fragment, residues 233-498, His-tagged recombinant protein | 48.5±0.4 °C

Substance | binding to ORAI1 in membrane flotation (human ORAI1 (65-301)) | Tm (thermal unfolding) (CD thermal unfolding)
STIM1^CT: cytoplasmic region of STIM1, mouse residues 233-685, His-tagged recombinant protein expressed in E coli | rose with the membranes into the upper part of the gradient | 47.0±0.3 °C
